According to patent US12508311B2, “Fusion protein, and preparation method and use thereof” (SUN YAT-SEN UNIVERSITY, priority 2021, dated 2025):
Substitutions are numbered along the chain they refer to.

B1: TKD: fusion protein: tumour-cell-penetrating peptide BR2, anti-KRas nanobody VHH and lysosome recognition peptide CTM; SEQ ID NO.4 (protein)
chain: RAGLQFPVGRLLRRLLRDVQLQESGGGLVQAGGSLRLSCVASGRTFSTYPTGWFRQAPGKEREFVARINLSGGITNYADSVKGRFTISRDNAKNTVYLQMNSLKPEDTAVYYCGGGSTTWAGGIPTNFDYWGQGTQVTVSSGRKFERQKILDQRFFE
B2: TKDm: control molecule of TKD with mutated CTM fragment (CTMmt) which could not be recognized by a lysosome; SEQ ID NO.5 (protein)
chain: B1 chain with Q148A, Q153A

Tests used:
[1] = biological target: T1, wild-type KRas protein in HT29 (KRas wt) cells (Homo sapiens, UniProt P01116); test: Western blot of KRas degradation in HT29 cells; assay type: cell-based; conditions: for degradation of KRas protein, concentration-dependency (western blot): 0-20 μg/ml
T1 construct: host or cells: HT29
Experimental: • (1) Source and culture of cells: human colorectal cancer cells HT29 (KRas wt) and human colorectal cancer cells HCT116 (KRas G13D) came from American Type Culture Collection (ATCC) (item number: HTB-38, CCL-247). HT29 and HCT116 cells were all cultured in the 1640 culture medium added with 10% fetal bovine serum (FBS), under 5% CO2 at 37° C. • (2) The colorectal cancer cells HCT116 and HT29 were respectively spread in six-well plates, 500,000 cells per well. […] 2,000 μL of DMEM complete culture solution was added into each well and mixed evenly, and the cells were cultured at 37° C. for 24 hours. • (3) The cells were cleaned with PBS twice, and 0.5 mL of 0.25% pancreatin was added into each well to digest the cells and make the cells fall off from the culture dish wall. Then, the digestion was stopped with 1 mL of complete culture solution per well, the cell suspension was collected into a 1.5 mL EP tube, and centrifuged at the room temperature and 300 g for 3 minutes to collect the cells. The cells were resuspended with 1 mL of PBS, and repeatedly centrifuged for one time. • (4) The supernatant was removed, and 100 μL of lysate was added in each group (item number: P0013G; purchased from Beyotime Biotechnology Company). The cells were lysed on ice, vortically vibrated every 5 minutes, and centrifuged at 4° C. and 12,000 pm for 30 minutes after being lysed for 30 minutes, and the supernatant was collected into a new 1.5 mL EP tube. • (5) The protein concentration was measured by the BCA method, and 30 μg of protein was taken from each group for SDS denaturation gel electrophoresis, transferred and blocked with 5% skim milk for 1 hour. Then, KRas (source: Proteintech; item number: 12063-1-AP) and β-tublin (source: Proteintech; item number: 10094-1-AP) primary antibodies were added by a ratio of 1:2,000, and shaken overnight at 4° C. to remove the antibodies. The membrane was washed with TBST for three times, 10 minutes each time. The rabbit secondary antibody labeled with corresponding HRP (source: TransGen Company; item number: HS101-01) was added for dilution with the ratio of 1:3,000 and incubated in shaking at the room temperature for 1 hour, and the membrane was cleaned with TBST for three times, 10 minutes each time. The antibody was luminously developed in the dark room of the ELC luminescent kit. Concentrations of all the primary antibodies were 1:2,000 (1 […] diluted in 2,000 μL of primary antibody diluent).
The protein concentrations were measured by BCA, and 30 μg of protein was taken respectively and stored in a refrigerator at −20° C. for later use. • (3) Western blot experiment was carried out on collected protein samples.

[2] = test system: HT29 cells; test: Flow cytometry of tumor cell targeting, HT29; assay type: cell-based, human; conditions: tested as 60 nM TKD-Cy5, 1 hour, Lys 05 10 μM
Experimental: (§1) Wherein, the protein C18 column (25 cm×10 mm) was used, with sample injection of 2×400 μL each time, and gradient elution was carried out for 30 minutes, 0.1% TFA (trifluoroacetic acid) solution to MeCN (acetonitrile): H2O (0.1% TFA)=70:30, and a flow rate was 4 mL/min. • (4) Target color tape peaks were collected, and the retention time of a labeled polypeptide was longer than that of an unlabeled polypeptide. • (5) The TKD-Cy5 molecule was diluted to 60 μM, and stored in a PBS solution, and kept in the dark at −20° C. 2. […] The cells were treated with corresponding drugs, namely, in the experimental groups, the cells were treated with 60 nM TKD-Cy5 coupling molecule, and in the control groups, the cells were treated with the Cy5 single molecule with corresponding concentration. The lysosome inhibitor Lys 05 with the final concentration of 10 μM was added into the control groups and the experimental groups at the same time, and the final volume of the culture solution in each well was 1 mL. […] The cells were resuspended with the PBS buffer solution, and centrifuged again, and the supernatant was discarded. The operation was repeated for three times. Finally, the cleaned cells were resuspended in 0.2 mL of PBS, wrapped with foil paper, and then analyzed on the flow cytometer (company: BECKMAN COULTER; model: Cytoflex), with the fluorescence channel of APC-A.

[3] = test system: normal intestinal epithelial cells FHC; test: Flow cytometry of tumor cell targeting, normal cells FHC; assay type: cell-based, human; conditions: tested as 60 nM TKD-Cy5, 1 hour, Lys 05 10 μM
Experimental: as §1

[4] = test system: signal pathway KRas/Raf/ERK/c-myc in KRas wild-type cells HT29; test: Western blot of EGFR downstream signal pathway, HT29; assay type: cell-based, human; conditions: 10 and 20 μg/mL, 24 hours, compared with control TKDm
Experimental: (§2) • (1) The colorectal cancer cells HCT116 (KRas G13D) and HT29 (KRas wt) were respectively spread in six-well plates, 500,000 cells per well. […] Then, the digestion was stopped with 1 mL of complete culture solution per well, the cell suspension was collected into a 1.5 mL EP tube, and centrifuged at the room temperature and 300 g for 3 minutes to collect cells. The cells were resuspended with 1 mL of PBS, and repeatedly centrifuged once. • (3) The supernatant was removed, 100 μL of lysate was added in each group (item number: P0013G; purchased from Beyotime Biotechnology Company). The cells were lysed on ice, vortically vibrated every 5 minutes, and centrifuged at 4° C. and 12,000 rpm for 30 minutes after being lysed for 30 minutes, and the supernatant was collected in a new 1.5 mL EP tube. • (4) The protein concentration was measured by the BCA method, and 20 μg of protein was taken from each group for SDS denaturation gel electrophoresis, transferred and blocked with 5% skim milk for 1 hour.

[5] = test system: signal pathway KRas/Raf/ERK/c-myc in KRas mutant-type cells HCT116; test: Western blot of EGFR downstream signal pathway, HCT116; assay type: cell-based, human; conditions: 10 and 20 μg/mL, 24 hours, compared with control TKDm
Experimental: as §2

[6] = test system: HT29 (KRas wt); test: Cell clone formation experiment, HT29; conditions: 10 and 20 μg/mL
[7] = test system: HCT116 (KRas G13D); test: Cell clone formation experiment, HCT116; conditions: 10 and 20 μg/mL
[8] = test system: HT29 (KRas wt); test: CCK-8 cell proliferation experiment, HT29; conditions: 10 and 20 μg/mL, 24 hours
Source text: CCK-8 was a highly sensitive and non-radioactive colorimetric method for determining the number of living cells in the cell proliferation or toxicity test.

Molecule	degradation of KRas, influence of administration time ([1]; 10 and 20 μg/mL, 1, 2, 6, 12, 24 hours, cell line not restated (FIG. 12))	degradation of KRas protein, concentration-dependency (western blot) ([1]; HT29, 24 hours)	degradation effect on KRas at 10 ug/mL and 20 ug/mL ([1]; HT29, FIG. 11, 24 hours)	entry into cells (flow cytometry, Cy5 fluorescence) [2]	entry into cells (flow cytometry, Cy5 fluorescence) [3]	inhibition of activation of EGFR downstream signal pathway KRas/Raf/ERK/c-myc (western blot) [4]	inhibition of activation of EGFR downstream signal pathway KRas/Raf/ERK/c-myc (western blot) [5]	inhibition of clone growth [6]	inhibition of clone growth [7]	inhibition of cell growth (CCK-8) [8]
B1	could rapidly degrade KRas, and the degradation was time-dependent within a certain range	could cause degradation of expression levels of the wild-type and mutant-type KRas proteins in the colorectal cancer cells, and the degradation degree was increased with the increase of the concentration	the degradation effect on KRas was obvious	could specifically recognize and pass through the cell membrane to enter the colorectal cancer cells	could not enter the normal colorectal epithelial cells	could significantly inhibit the activation of the EGFR downstream signal pathway KRas/Raf/ERK/c-myc	could significantly inhibit the activation of the EGFR downstream signal pathway KRas/Raf/ERK/c-myc	could significantly inhibit the growth	could significantly inhibit the growth	could significantly inhibit growth
B2		could not play a similar role								could not achieve the same effect
